13 molecules from patent US20250352661A1 (MYTHIC THERAPEUTICS, published 2025) can be followed below.

The labels stand for the following.
B1: MYT6099 (antibody, V domains shown)
VH: QEQLEESGGDLVKPGASLTLTCTASGLDFRRTNYICWVRQAPGKGLEWIGCIYIADVVAYYASWAKGRFTFSKTSSTTVTLQMTSLTAADTATYFCARGADGGFVYGMDLWGPGTLVTVSS
VL: DVVMTQTPASVSEPVGGTVTIKCQASQSIGNYLSWYQQKPGQRPKRLIYSASTLPSGVPSRFKGAGSGTEFTLTISDLESADAATYYCQNNYWLAGYGHPFGGGTEVVVK
notes: chimeric rabbit 15G7 variant (rabbit variable domains, human constant regions); also called 15G7 VH H59A
B2: MYT6103 (antibody, V domains shown)
VH: QEQLEESGGDLVKPGASLTLTCTASGLDFRRTNYICWVRQAPGKGLEWIGCIYIADVVHYYAHWAKGRFTFSKTSSTTVTLQMTSLTAADTATYFCARGADGGFVYGMDLWGPGTLVTVSS
VL: DVVMTQTPASVSEPVGGTVTIKCQASQSIGNYLSWYQQKPGQRPKRLIYSASTLPSGVPSRFKGAGSGTEFTLTISDLESADAATYYCQNNYWLAGYGHPFGGGTEVVVK
notes: chimeric rabbit 15G7 variant (rabbit variable domains, human constant regions); also called 15G7 VH S63H
B3: MYT6108 (antibody, V domains shown)
VH: QEQLEESGGDLVKPGASLTLTCTASGLDFRRTNYICWVRQAPGKGLEWIGCIYIADVVHYYASWAKGRFTFSKTSSTTVTLQMTSLTAADTATYFCHRGADGGFVYGMDLWGPGTLVTVSS
VL: DVVMTQTPASVSEPVGGTVTIKCQASQSIGNYLSWYQQKPGQRPKRLIYSASTLPSGVPSRFKGAGSGTEFTLTISDLESADAATYYCQNNYWLAGYGHPFGGGTEVVVK
notes: chimeric rabbit 15G7 variant (rabbit variable domains, human constant regions); also called 15G7 VH A97H
B4: MYT6101 (antibody, V domains shown)
VH: QEQLEESGGDLVKPGASLTLTCTASGLDFRRTNYICWVRQAPGKGLEWIGCIYIADVVHYHASWAKGRFTFSKTSSTTVTLQMTSLTAADTATYFCARGADGGFVYGMDLWGPGTLVTVSS
VL: DVVMTQTPASVSEPVGGTVTIKCQASQSIGNYLSWYQQKPGQRPKRLIYSASTLPSGVPSRFKGAGSGTEFTLTISDLESADAATYYCQNNYWLAGYGHPFGGGTEVVVK
notes: chimeric rabbit 15G7 variant (rabbit variable domains, human constant regions); also called 15G7 VH Y61H
B5: MYT6109 (antibody, V domains shown)
VH: QEQLEESGGDLVKPGASLTLTCTASGLDFRRTNYICWVRQAPGKGLEWIGCIYIADVVHYYASWAKGRFTFSKTSSTTVTLQMTSLTAADTATYFCAHGADGGFVYGMDLWGPGTLVTVSS
VL: DVVMTQTPASVSEPVGGTVTIKCQASQSIGNYLSWYQQKPGQRPKRLIYSASTLPSGVPSRFKGAGSGTEFTLTISDLESADAATYYCQNNYWLAGYGHPFGGGTEVVVK
notes: chimeric rabbit 15G7 variant (rabbit variable domains, human constant regions); also called 15G7 VH R98H
B6: MYT6100 (antibody, V domains shown)
VH: QEQLEESGGDLVKPGASLTLTCTASGLDFRRTNYICWVRQAPGKGLEWIGCIYIADVVHHYASWAKGRFTFSKTSSTTVTLQMTSLTAADTATYFCARGADGGFVYGMDLWGPGTLVTVSS
VL: DVVMTQTPASVSEPVGGTVTIKCQASQSIGNYLSWYQQKPGQRPKRLIYSASTLPSGVPSRFKGAGSGTEFTLTISDLESADAATYYCQNNYWLAGYGHPFGGGTEVVVK
notes: chimeric rabbit 15G7 variant (rabbit variable domains, human constant regions); also called 15G7 VH Y60H
B7: MYT6106 (antibody, V domains shown)
VH: QEQLEESGGDLVKPGASLTLTCTASGLDFRRTNYICWVRQAPGKGLEWIGCIYIADVVHYYASWAHGRFTFSKTSSTTVTLQMTSLTAADTATYFCARGADGGFVYGMDLWGPGTLVTVSS
VL: DVVMTQTPASVSEPVGGTVTIKCQASQSIGNYLSWYQQKPGQRPKRLIYSASTLPSGVPSRFKGAGSGTEFTLTISDLESADAATYYCQNNYWLAGYGHPFGGGTEVVVK
notes: chimeric rabbit 15G7 variant (rabbit variable domains, human constant regions); also called 15G7 VH K66H
B8: MYT6107 (antibody, V domains shown)
VH: QEQLEESGGDLVKPGASLTLTCTASGLDFRRTNYICWVRQAPGKGLEWIGCIYIADVVHYYASWAKHRFTFSKTSSTTVTLQMTSLTAADTATYFCARGADGGFVYGMDLWGPGTLVTVSS
VL: DVVMTQTPASVSEPVGGTVTIKCQASQSIGNYLSWYQQKPGQRPKRLIYSASTLPSGVPSRFKGAGSGTEFTLTISDLESADAATYYCQNNYWLAGYGHPFGGGTEVVVK
notes: chimeric rabbit 15G7 variant (rabbit variable domains, human constant regions); also called 15G7 VH G67H
B9: MYT6110 (antibody, V domains shown)
VH: QEQLEESGGDLVKPGASLTLTCTASGLDFRRTNYICWVRQAPGKGLEWIGCIYIADVVHYYASWAKGRFTFSKTSSTTVTLQMTSLTAADTATYFCARHADGGFVYGMDLWGPGTLVTVSS
VL: DVVMTQTPASVSEPVGGTVTIKCQASQSIGNYLSWYQQKPGQRPKRLIYSASTLPSGVPSRFKGAGSGTEFTLTISDLESADAATYYCQNNYWLAGYGHPFGGGTEVVVK
notes: chimeric rabbit 15G7 variant (rabbit variable domains, human constant regions); also called 15G7 VH G99H
B10: MYT6105 (antibody, V domains shown)
VH: QEQLEESGGDLVKPGASLTLTCTASGLDFRRTNYICWVRQAPGKGLEWIGCIYIADVVHYYASWHKGRFTFSKTSSTTVTLQMTSLTAADTATYFCARGADGGFVYGMDLWGPGTLVTVSS
VL: DVVMTQTPASVSEPVGGTVTIKCQASQSIGNYLSWYQQKPGQRPKRLIYSASTLPSGVPSRFKGAGSGTEFTLTISDLESADAATYYCQNNYWLAGYGHPFGGGTEVVVK
notes: chimeric rabbit 15G7 variant (rabbit variable domains, human constant regions); also called 15G7 VH A65H
B11: MYT9684 (antibody, V domains shown)
VH: EVQLVESGGGLVQPGGSLRLSCTASEFSFSSSHWICWVRQAPGKGLEWVGCIYAGSIGSTYYASWAKGRFTISRDTSKNTVYLQMNSLRAEDTAVYYCARAPNDIYNYYFNLWGQGTLVTVSS
VL: EIVMTQSPSTLSASVGDRVIITCQASENIYNYLAWYQQKPGKAPKLLIYYASTLASGVPSRFSGSGSGAEFTLTISSLQPDDFATYYCQSGYVSKSSTFGQGTKLTVL
notes: also called hu29F1 VH G26E
B12: MYT9685 (antibody, V domains shown)
VH: EVQLVESGGGLVQPGGSLRLSCTASGESFSSSHWICWVRQAPGKGLEWVGCIYAGSIGSTYYASWAKGRFTISRDTSKNTVYLQMNSLRAEDTAVYYCARAPNDIYNYYFNLWGQGTLVTVSS
VL: EIVMTQSPSTLSASVGDRVIITCQASENIYNYLAWYQQKPGKAPKLLIYYASTLASGVPSRFSGSGSGAEFTLTISSLQPDDFATYYCQSGYVSKSSTFGQGTKLTVL
notes: also called hu29F1 VH F27E
B13: MYT9686 (antibody, V domains shown)
VH: EVQLVESGGGLVQPGGSLRLSCTASGFEFSSSHWICWVRQAPGKGLEWVGCIYAGSIGSTYYASWAKGRFTISRDTSKNTVYLQMNSLRAEDTAVYYCARAPNDIYNYYFNLWGQGTLVTVSS
VL: EIVMTQSPSTLSASVGDRVIITCQASENIYNYLAWYQQKPGKAPKLLIYYASTLASGVPSRFSGSGSGAEFTLTISSLQPDDFATYYCQSGYVSKSSTFGQGTKLTVL
notes: also called hu29F1 VH S28E

In the first experiment the target is T1, Human LRRC15 Protein, His Tag (Acro Biosystems) (human, UniProt Q8TF66 22-538, limits assumed).
T1 sequence (looked up): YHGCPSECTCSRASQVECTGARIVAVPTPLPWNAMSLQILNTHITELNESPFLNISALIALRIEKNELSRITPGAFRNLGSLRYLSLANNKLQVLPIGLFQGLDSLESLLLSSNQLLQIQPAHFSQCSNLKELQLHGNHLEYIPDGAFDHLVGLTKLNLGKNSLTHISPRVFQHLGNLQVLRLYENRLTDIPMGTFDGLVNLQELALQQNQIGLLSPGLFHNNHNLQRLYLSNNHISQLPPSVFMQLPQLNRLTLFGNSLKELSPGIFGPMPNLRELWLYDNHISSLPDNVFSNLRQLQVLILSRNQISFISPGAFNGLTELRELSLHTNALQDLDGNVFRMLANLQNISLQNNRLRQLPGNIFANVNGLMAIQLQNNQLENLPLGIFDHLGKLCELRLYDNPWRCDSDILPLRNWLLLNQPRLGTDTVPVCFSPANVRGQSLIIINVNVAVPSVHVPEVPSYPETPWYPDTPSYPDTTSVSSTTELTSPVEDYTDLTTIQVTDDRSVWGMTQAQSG
In words: BLI; dissociation pH 7.4 black, pH 5.4 grey [1/2); D00006 FIG. 1E (1/2]. The source says: For each individual plot, antigen binding proteins were captured on anti-human Fc biosensors and associated with LRRC15 at pH 7.4. Dissociation was at pH 7.4 (black) or pH 5.4 (grey). Major X-axis ticks=100 seconds, with left dashed vertical line=0 seconds. Major Y-axis ticks=0.5 nm and octet plots are shown MYT5712 and MYT6080-MYT6121.
Multiple LRRC15-binding monoclonal antibodies have been described in the literature and can be used as a template for engineering pH-dependent binding. We selected discovery RabMAb clone 15G7 (rabbit VH SEQ ID NO: 378, rabbit VL SEQ ID NO: 451; humanized VH SEQ ID NO: 382, humanized VL SEQ ID NO: 455) as a LRRC15-binding monoclonal antibody for pH-engineering via histidine scanning. […] To generate pH-dependent sequence variants, individual amino acid residues within the heavy chain CDRs were systematically substituted with a histidine (or alanine if H was already present in a given position; e.g., MYT6099), one at a time (rabbit, MYT6080-6121). Desirable mutations were transferred to a humanized framework (humanized, MYT 8387-8411). After allowing for four days of protein expression, cell culture supernatants were collected, quantified by SDS-PAGE analysis, and the pH dependence of the variant was evaluated using biolayer interferometry (BLI) on an Octet RED 96e instrument. Briefly, cell culture supernatants were diluted based on qualitative expression level of the variant determined by visual examination of SDS-PAGE gels, 5 μL of cell culture supernatant was diluted into 195 μL of 1×PBST, pH 7.4 for high expressors, 25 μL of cell culture supernatant was diluted into 175 μL of 1×PBST, pH 7.4 for medium expressors and 100 μL of cell culture supernatant was diluted into 100 μL of 1×PBST, pH 7.4 for low expressors for loading onto the sensor tips.
Background: Biolayer interferometry detects binding as a change in optical thickness at a sensor tip.
Take B1: the binding result is “binds”.
On the same count and under the same terms, to B2 belongs “binds”; to B3, “binds”.
The same measure, in the same setting: with B4 the entry was “binds”.
Same read-out and setting: with B5 the entry was “binds”; with B6, “binds”; with B7, “binds”.
Regarding B8, the binding result is listed as “binds”.
In the case of B9, the binding result is “binds”.
Same read-out and setting: with B10 the entry was “binds”.

Another experiment addresses T2, Human LRRC15 Protein, His Tag (Acro Biosystems) (human, UniProt Q8TF66 22-538, limits assumed).
T2 construct: not shown: His tag
T2 sequence (looked up): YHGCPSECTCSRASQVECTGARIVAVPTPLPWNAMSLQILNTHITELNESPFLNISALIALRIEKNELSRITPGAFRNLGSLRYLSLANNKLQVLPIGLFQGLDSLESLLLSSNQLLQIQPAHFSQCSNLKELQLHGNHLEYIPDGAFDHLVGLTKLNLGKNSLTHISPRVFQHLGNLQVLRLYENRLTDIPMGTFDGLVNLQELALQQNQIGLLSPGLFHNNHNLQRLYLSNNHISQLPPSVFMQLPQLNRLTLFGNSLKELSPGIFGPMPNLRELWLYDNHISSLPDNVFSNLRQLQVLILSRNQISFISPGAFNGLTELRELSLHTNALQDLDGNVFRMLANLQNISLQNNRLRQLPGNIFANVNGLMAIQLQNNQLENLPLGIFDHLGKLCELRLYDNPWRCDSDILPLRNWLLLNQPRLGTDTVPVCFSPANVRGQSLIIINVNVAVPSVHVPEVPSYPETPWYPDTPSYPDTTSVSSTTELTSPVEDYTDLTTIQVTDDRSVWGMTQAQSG
In words: BLI; dissociation pH 7.4 black, pH 5.4 grey [1/2); D00025 FIG. 6B (1/2]. As for the experimental part: Desirable mutations were transferred to a humanized framework (humanized, MYT 8387-8411). After allowing for four days of protein expression, cell culture supernatants were collected, quantified by SDS-PAGE analysis, and the pH dependence of the variant was evaluated using biolayer interferometry (BLI) on an Octet RED 96e instrument. Briefly, cell culture supernatants were diluted based on qualitative expression level of the variant determined by visual examination of SDS-PAGE gels, 5 μL of cell culture supernatant was diluted into 195 μL of 1×PBST, pH 7.4 for high expressors, 25 μL of cell culture supernatant was diluted into 175 μL of 1×PBST, pH 7.4 for medium expressors and 100 μL of cell culture supernatant was diluted into 100 μL of 1×PBST, pH 7.4 for low expressors for loading onto the sensor tips. The resulting diluted supernatants were then captured on an anti-human Fc sensor (Forte Bio). A baseline was established using 1×PBST (50 mM Potassium Phosphate Buffer+150 mM NaCl+0.05% Tween 20) pH 7.4, and the […] was associated with 50 nM of LRRC15 (Human LRRC15 Protein, His Tag, Acro Biosystems) in 1×PBST pH 7.4 for 120 sec to generate an association curve. In the dissociation phase, the antibody-antigen complex on the sensor was exposed to 1×PBST pH 7.4 or pH 5.4, for 300 sec. Association and dissociation phase curves were examined for the starting ABPC antibody (with no substitutions) and each corresponding antibody variant at pH 5.4 and pH 7.4 to inform on two criteria: a) enhanced dissociation (i.e., higher koff values) at pH 5.4 due to histidine substitution compared to the starting ABPC, (with no substitutions), and b) reduced dissociation at pH 7.4 (i.e., lower koff values) compared to pH 5.4 in the antibody variant itself and with the starting ABPC (with no substitutions).
The methods of Examples 9-10 were applied to RabMAb clone 29F1 (rabbit VH SEQ ID NO: 572 and VL SEQ ID NO: 578; and humanized VH SEQ ID NO: 576 and VL SEQ ID NO: 582).
In the case of B11, the binding result is “binds”.
On the same count and under the same terms, to B12 belongs “binds”.
On the same count and under the same terms, to B13 belongs “binds”.
